# According to patent US20080020978A1 (Amgen, published 2008):
# Bridge positions count the residues as written; N and C are the ends. Square brackets hold non-standard residues; d marks the D form. Ends that are not written are not given here. 1Nal = N[C@@H](Cc1cccc2ccccc12)C(=O)O; hArg = N=C(N)NCCCC[C@H](N)C(=O)O; Cit = NC(=O)NCCC[C@H](N)C(=O)O; Aze = O=C(O)[C@@H]1CCN1; Aib = CC(C)(N)C(=O)O; Ahx = NCCCCCC(=O)O
# Molecular target: CGRP1 receptor (CRLR/RAMP1 complex) of human neuroblastoma SK-N-MC cells (human, UniProt Q16602 23-461; O60894 27-148)
# Assay: cell-based or functional assay
# Sequence of CGRP1 receptor (CRLR/RAMP1 complex) of human neuroblastoma SK-N-MC cells (Q16602 23-461, chain 1 of 2): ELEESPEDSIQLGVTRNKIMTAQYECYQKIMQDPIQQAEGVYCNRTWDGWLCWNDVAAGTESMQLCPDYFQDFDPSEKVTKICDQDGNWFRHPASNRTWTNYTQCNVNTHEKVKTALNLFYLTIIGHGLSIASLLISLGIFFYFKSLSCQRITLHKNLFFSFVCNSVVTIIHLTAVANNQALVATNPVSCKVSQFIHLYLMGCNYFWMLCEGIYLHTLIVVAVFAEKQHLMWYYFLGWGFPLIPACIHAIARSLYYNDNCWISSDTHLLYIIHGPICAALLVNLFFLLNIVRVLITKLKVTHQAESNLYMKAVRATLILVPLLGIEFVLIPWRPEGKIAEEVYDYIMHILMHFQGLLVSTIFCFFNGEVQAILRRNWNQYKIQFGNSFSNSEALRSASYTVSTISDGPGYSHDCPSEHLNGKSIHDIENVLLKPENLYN
# Sequence of CGRP1 receptor (CRLR/RAMP1 complex) of human neuroblastoma SK-N-MC cells (O60894 27-148, chain 2 of 2): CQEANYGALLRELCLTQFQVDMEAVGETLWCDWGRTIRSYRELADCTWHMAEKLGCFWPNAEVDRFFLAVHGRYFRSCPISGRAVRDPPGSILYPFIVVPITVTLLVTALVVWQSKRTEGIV
Binder,Peptide IC50,PEG-peptide IC50
Ac-WVEH[hArg]LKGLLS[Cit]SGGVV[hArg]KNFVPTDVGPFAF-NH2 (lactam 3-7; SMILES CC(=O)N[C@@H](Cc1c[nH]c2ccccc12)C(=O)N[C@H](C(=O)N[C@H]1CCC(=O)NCCCC[C@@H](C(=O)NCC(=O)N[C@@H](CC(C)C)C(=O)N[C@@H](CC(C)C)C(=O)N[C@@H](CO)C(=O)N[C@@H](CCCNC(N)=O)C(=O)N[C@@H](CO)C(=O)NCC(=O)NCC(=O)N[C@H](C(=O)N[C@H](C(=O)N[C@@H](CCCCNC(=N)N)C(=O)N[C@@H](CCCCN)C(=O)N[C@@H](CC(N)=O)C(=O)N[C@@H](Cc2ccccc2)C(=O)N[C@H](C(=O)N2CCC[C@H]2C(=O)N[C@H](C(=O)N[C@@H](CC(=O)O)C(=O)N[C@H](C(=O)NCC(=O)N2CCC[C@H]2C(=O)N[C@@H](Cc2ccccc2)C(=O)N[C@@H](C)C(=O)N[C@@H](Cc2ccccc2)C(N)=O)C(C)C)[C@@H](C)O)C(C)C)C(C)C)C(C)C)NC(=O)[C@H](CC(C)C)NC(=O)[C@H](CCCCNC(=N)N)NC(=O)[C@H](Cc2c[nH]cn2)NC1=O)C(C)C) [SEQ ID NO 908],1.28 nM,–
Ac-[1Nal]VEH[hArg]LKGLLS[Cit]SG[Aze]VV[hArg]KNFVPTDVGPFAF-NH2 (SMILES CC(=O)N[C@@H](Cc1cccc2ccccc12)C(=O)N[C@H](C(=O)N[C@@H](CCC(=O)O)C(=O)N[C@@H](Cc1c[nH]cn1)C(=O)N[C@@H](CCCCNC(=N)N)C(=O)N[C@@H](CC(C)C)C(=O)N[C@@H](CCCCN)C(=O)NCC(=O)N[C@@H](CC(C)C)C(=O)N[C@@H](CC(C)C)C(=O)N[C@@H](CO)C(=O)N[C@@H](CCCNC(N)=O)C(=O)N[C@@H](CO)C(=O)NCC(=O)N1CC[C@H]1C(=O)N[C@H](C(=O)N[C@H](C(=O)N[C@@H](CCCCNC(=N)N)C(=O)N[C@@H](CCCCN)C(=O)N[C@@H](CC(N)=O)C(=O)N[C@@H](Cc1ccccc1)C(=O)N[C@H](C(=O)N1CCC[C@H]1C(=O)N[C@H](C(=O)N[C@@H](CC(=O)O)C(=O)N[C@H](C(=O)NCC(=O)N1CCC[C@H]1C(=O)N[C@@H](Cc1ccccc1)C(=O)N[C@@H](C)C(=O)N[C@@H](Cc1ccccc1)C(N)=O)C(C)C)[C@@H](C)O)C(C)C)C(C)C)C(C)C)C(C)C) [SEQ ID NO 910],2.31 nM,–
Ac-[1Nal]VEH[hArg]LKGLLS[Cit]SGGVVRKNFVPTDVGPFAF-NH2 (lactam 3-7; SMILES CC(=O)N[C@@H](Cc1cccc2ccccc12)C(=O)N[C@H](C(=O)N[C@H]1CCC(=O)NCCCC[C@@H](C(=O)NCC(=O)N[C@@H](CC(C)C)C(=O)N[C@@H](CC(C)C)C(=O)N[C@@H](CO)C(=O)N[C@@H](CCCNC(N)=O)C(=O)N[C@@H](CO)C(=O)NCC(=O)NCC(=O)N[C@H](C(=O)N[C@H](C(=O)N[C@@H](CCCNC(=N)N)C(=O)N[C@@H](CCCCN)C(=O)N[C@@H](CC(N)=O)C(=O)N[C@@H](Cc2ccccc2)C(=O)N[C@H](C(=O)N2CCC[C@H]2C(=O)N[C@H](C(=O)N[C@@H](CC(=O)O)C(=O)N[C@H](C(=O)NCC(=O)N2CCC[C@H]2C(=O)N[C@@H](Cc2ccccc2)C(=O)N[C@@H](C)C(=O)N[C@@H](Cc2ccccc2)C(N)=O)C(C)C)[C@@H](C)O)C(C)C)C(C)C)C(C)C)NC(=O)[C@H](CC(C)C)NC(=O)[C@H](CCCCNC(=N)N)NC(=O)[C@H](Cc2c[nH]cn2)NC1=O)C(C)C) [SEQ ID NO 900],2.43 nM,–
"Ac-WVEHRLKGLLS[Cit]SGGVV[hArg]KNFVPTDVGPFAF-NH2 (lactam 3-7; also: PEG-conjugated, in most cases at Lys25) [PEG-peptide of SEQ ID NO 906]",–,2.29 nM
WVTHRLAGLLSRSGGVVRKNXVPTDVGPFAF (Ac-WVTHRLAGLLSRSGGVVRKN[2-Nal]VPTDVGPFAF-NH2) [SEQ ID NO 912],1.16 nM,–
WVTHRLAGLLSRSGGVVRKNFVPTDVGPFAX (Ac-WVTHRLAGLLSRSGGVVRKNFVPTDVGPFA[2-Nal]-NH2) [SEQ ID NO 913],1.72 nM,–
WVTHRLAGLLSRSGGVVRKNFVPTDVGPFAX (Ac-WVTHRLAGLLSRSGGVVRKNFVPTDVGPFA[1-Nal]-NH2) [SEQ ID NO 914],33.1 nM,–
"Ac-WVEHRLKGLLS[hArg]SGGVV[hArg]KNFVPTDVGPFAF-NH2 (lactam 3-7; also: PEG-conjugated, in most cases at Lys25) [PEG-peptide of SEQ ID NO 905]",–,3.7 nM
C[Ahx]WVTHRLAGLLSRSGGVVRKNFVPTDVGPFAF-NH2 (N-terminus assumed; SMILES CC(C)C[C@H](NC(=O)CNC(=O)[C@H](C)NC(=O)[C@H](CC(C)C)NC(=O)[C@H](CCCNC(=N)N)NC(=O)[C@H](Cc1c[nH]cn1)NC(=O)[C@@H](NC(=O)[C@@H](NC(=O)[C@H](Cc1c[nH]c2ccccc12)NC(=O)CCCCCNC(=O)[C@@H](N)CS)C(C)C)[C@@H](C)O)C(=O)N[C@@H](CC(C)C)C(=O)N[C@@H](CO)C(=O)N[C@@H](CCCNC(=N)N)C(=O)N[C@@H](CO)C(=O)NCC(=O)NCC(=O)N[C@H](C(=O)N[C@H](C(=O)N[C@@H](CCCNC(=N)N)C(=O)N[C@@H](CCCCN)C(=O)N[C@@H](CC(N)=O)C(=O)N[C@@H](Cc1ccccc1)C(=O)N[C@H](C(=O)N1CCC[C@H]1C(=O)N[C@H](C(=O)N[C@@H](CC(=O)O)C(=O)N[C@H](C(=O)NCC(=O)N1CCC[C@H]1C(=O)N[C@@H](Cc1ccccc1)C(=O)N[C@@H](C)C(=O)N[C@@H](Cc1ccccc1)C(N)=O)C(C)C)[C@@H](C)O)C(C)C)C(C)C)C(C)C) [SEQ ID NO 916],1.8 nM,–
Ac-WVEH[hArg]LKGLLS[Cit]SG[Aze]VVRKNFVPTDVGPFAF-NH2 (lactam 3-7) [SEQ ID NO 899],1.62 nM,–
Ac-WVEHRLKGLLS[hArg]SGGVV[hArg]KNFVPTDVGPFAF-NH2 (lactam 3-7) [SEQ ID NO 905],1.7 nM,–
"Ac-WVEHRLKGLLSQSGGVV[hArg]KNFVPTDVGPFAF-NH2 (lactam 3-7; also: PEG-conjugated, in most cases at Lys25) [PEG-peptide of SEQ ID NO 904]",–,6.73 nM
WVEHRLKGELSRKGGVVXKNFVPTDVGPFAF (Ac-WVEHRLKGELSRKGGVV[hArg]KNFVPTDVGPFAF-NH2) [SEQ ID NO 901],1.02 nM,–
WVEHRLKGELSXKGGVVXKNFVPTDVGPFAF (Ac-WVEHRLKGELS[Cit]KGGVV[hArg]KNFVPTDVGPFAF-NH2) [SEQ ID NO 902],0.49 nM,–
Ac-WVEHRLKGLLS[Cit]SGGVV[hArg]KNFVPTDVGPFAF-NH2 (lactam 3-7) [SEQ ID NO 906],1.15 nM,–
Ac-WVEH[hArg]LKGLLS[Cit]SG[Aze]VV[hArg]KNFVPTDVGPFAF-NH2 (lactam 3-7; SMILES CC(=O)N[C@@H](Cc1c[nH]c2ccccc12)C(=O)N[C@H](C(=O)N[C@H]1CCC(=O)NCCCC[C@@H](C(=O)NCC(=O)N[C@@H](CC(C)C)C(=O)N[C@@H](CC(C)C)C(=O)N[C@@H](CO)C(=O)N[C@@H](CCCNC(N)=O)C(=O)N[C@@H](CO)C(=O)NCC(=O)N2CC[C@H]2C(=O)N[C@H](C(=O)N[C@H](C(=O)N[C@@H](CCCCNC(=N)N)C(=O)N[C@@H](CCCCN)C(=O)N[C@@H](CC(N)=O)C(=O)N[C@@H](Cc2ccccc2)C(=O)N[C@H](C(=O)N2CCC[C@H]2C(=O)N[C@H](C(=O)N[C@@H](CC(=O)O)C(=O)N[C@H](C(=O)NCC(=O)N2CCC[C@H]2C(=O)N[C@@H](Cc2ccccc2)C(=O)N[C@@H](C)C(=O)N[C@@H](Cc2ccccc2)C(N)=O)C(C)C)[C@@H](C)O)C(C)C)C(C)C)C(C)C)NC(=O)[C@H](CC(C)C)NC(=O)[C@H](CCCCNC(=N)N)NC(=O)[C@H](Cc2c[nH]cn2)NC1=O)C(C)C) [SEQ ID NO 909],3.45 nM,–
Ac-WVEHRLKGLLSQSGGVV[hArg]KNFVPTDVGPFAF-NH2 (lactam 3-7) [SEQ ID NO 904],2.03 nM,–
"Ac-WVEH[Cit]LKGLLS[Cit]SGGVV[hArg]KNFVPTDVGPFAF-NH2 (lactam 3-7; also: PEG-conjugated, in most cases at Lys25) [PEG-peptide of SEQ ID NO 907]",–,4.87 nM
"Ac-[Aib]WVEH[hArg]LKGLLS[Cit]SGGVVRKNFVPTDVGPFAF-NH2 (lactam 4-8; also: PEG-conjugated, in most cases at Lys25) [PEG-peptide of SEQ ID NO 898]",–,40.7 nM
Ac-WVTHRLAGLLSRSGGVVRKNFVPTDVGPKAF-NH2 [SEQ ID NO 917],1 nM,–
Ac-WVTHRLEGLLKQSGGVV[hArg]KNFVPTDVGPFAF-NH2 (SMILES CC(=O)N[C@@H](Cc1c[nH]c2ccccc12)C(=O)N[C@H](C(=O)N[C@H](C(=O)N[C@@H](Cc1c[nH]cn1)C(=O)N[C@@H](CCCNC(=N)N)C(=O)N[C@@H](CC(C)C)C(=O)N[C@@H](CCC(=O)O)C(=O)NCC(=O)N[C@@H](CC(C)C)C(=O)N[C@@H](CC(C)C)C(=O)N[C@@H](CCCCN)C(=O)N[C@@H](CCC(N)=O)C(=O)N[C@@H](CO)C(=O)NCC(=O)NCC(=O)N[C@H](C(=O)N[C@H](C(=O)N[C@@H](CCCCNC(=N)N)C(=O)N[C@@H](CCCCN)C(=O)N[C@@H](CC(N)=O)C(=O)N[C@@H](Cc1ccccc1)C(=O)N[C@H](C(=O)N1CCC[C@H]1C(=O)N[C@H](C(=O)N[C@@H](CC(=O)O)C(=O)N[C@H](C(=O)NCC(=O)N1CCC[C@H]1C(=O)N[C@@H](Cc1ccccc1)C(=O)N[C@@H](C)C(=O)N[C@@H](Cc1ccccc1)C(N)=O)C(C)C)[C@@H](C)O)C(C)C)C(C)C)C(C)C)[C@@H](C)O)C(C)C) [SEQ ID NO 903],3.5 nM,–
Ac-WVTHRLAGLLSRSGGVVRKNFVPTDVGSKAF-NH2 [SEQ ID NO 915],1.15 nM,–
